Where a SMILES comes first, the peptide text is derived from it. Bridges are numbered along the chain shown (N, C = ends). Where no end group is shown, it is not given here.
Tests used:
[1] = target: T1, interaction of SARS-CoV-2 S1 and hACE2 in hACE2-overexpressed HEK293 cells (Severe acute respiratory syndrome coronavirus 2, UniProt P0DTC2); assay type: cell-based, human
T1 construct: S1 protein-His Tag (AcroBiosystems, S1N-C52H3-100UG, USA); AcroBiosystems (S1 protein) 145033; S1N-C52H3-100UG; host or cells: HEK293

S1 subunit of SARS-CoV-2 = target: T2, S1 subunit of SARS-CoV-2 (Severe acute respiratory syndrome coronavirus 2, UniProt P0DTC2); assay type: binding
T2 construct: ACE2 and S1 subunits of SARS-CoV-2; His Tag; purchased AcroBiosystems S1N-C52H3-100UG

| Compound | effect on membrane localization of S1 [1] | effect on S1-ACE2 interaction [1] | dependent binding to S1 (S1 subunit of SARS-CoV-2) |
| --- | --- | --- | --- |
| CC[C@H](C)[C@H](NC(=O)[C@H](CCCNC(=N)N)NC(=O)[C@@H]1CSSC[C@H](NC(=O)CNC(=O)CNC(=O)[C@@H]2CCCN2C(=O)[C@H](CO)NC(=O)[C@H](C)NC(=O)[C@H](CC(C)C)NC(=O)[C@H](CO)NC(=O)[C@H](CO)NC(=O)[C@H](CCCCN)NC(=O)[C@H](Cc2ccc(O)cc2)NC(=O)[C@H](Cc2ccccc2)NC(=O)[C@H](CC(C)C)NC(=O)[C@H](CC(=O)O)NC(=O)[C@H](CCC(=O)O)NC(=O)[C@@H]2CCCCNC(=O)C[C@H](NC(=O)[C@H](CCCCN)NC(=O)[C@H](CC(=O)O)NC(=O)[C@H](CC(C)C)NC(=O)[C@H](Cc3ccccc3)NC(=O)[C@H](CC(N)=O)NC(=O)[C@H](C)NC(=O)[C@H](C)NC(=O)[C@H](CCC(N)=O)NC(=O)[C@@H](N)CC(C)C)C(=O)N[C@@H](CC(N)=O)C(=O)N[C@@H](CC(=O)O)C(=O)N[C@@H](CCC(=O)O)C(=O)N2)C(=O)N[C@@H](CC(C)C)C(=O)NCC(=O)N[C@@H](CCCCN)C(=O)NCC(=O)N[C@@H](CC(=O)O)C(=O)N1)C(=O)N[C@@H](CC(C)C)C(=O)O [CSNP2] (H-LQAANFLDKDNDEKEDLFYKSSLASPGGCLGKGDCRIL-OH; lactam 10-14; disulfide 29-35; N-terminus and C-terminus assumed) | completely blocked the membrane localization of S1 |  |  |
| CSNP3 (ENAINFLDKDNHEKEDLFYQ; not fully specified) |  | completely eliminated the S1-ACE2 interaction | no dependent binding |

From patent US20240059741A1, “COMPOSITION FOR PREVENTION OR TREATMENT OF SARS-COV-2 INFECTION” (priority 2020, published 2024)
